According to patent US20030199036:

Molecular target: S. pombe cdc25 tagged with a triple tandem copy of the hemagglutinin epitope (UniProt P06652)

Schizosaccharomyces pombe pub1 (untagged)
accumulation of cdc25 higher molecular weight (ubiquitinated) species in mts2 mutants, pub1 wild type (SP 1212) against pub1 disruption (SP 1213), Western blot: We estimate that disruption of pub1 reduces the accumulation of cdc25 higher molecular weight species at least 10 fold.
